The target of test [1] is T1, human cannabinoid type 1 (CB1) receptor (human, UniProt P21554 1-472). The test is described as follows: cell-based or functional assay.
For test [2], the target named is T1, human cannabinoid type 1 (CB1) receptor. The test is described as follows: cell-based or functional assay. The source holds these as a separate data set.

The text below walks through data of US20250326836A1 (SHIONOGI, published 2025).

Numbering of substitutions follows the chain as printed. Like-named read-outs stand apart in the source and are kept apart here.

T1 sequence (P21554 whole entry): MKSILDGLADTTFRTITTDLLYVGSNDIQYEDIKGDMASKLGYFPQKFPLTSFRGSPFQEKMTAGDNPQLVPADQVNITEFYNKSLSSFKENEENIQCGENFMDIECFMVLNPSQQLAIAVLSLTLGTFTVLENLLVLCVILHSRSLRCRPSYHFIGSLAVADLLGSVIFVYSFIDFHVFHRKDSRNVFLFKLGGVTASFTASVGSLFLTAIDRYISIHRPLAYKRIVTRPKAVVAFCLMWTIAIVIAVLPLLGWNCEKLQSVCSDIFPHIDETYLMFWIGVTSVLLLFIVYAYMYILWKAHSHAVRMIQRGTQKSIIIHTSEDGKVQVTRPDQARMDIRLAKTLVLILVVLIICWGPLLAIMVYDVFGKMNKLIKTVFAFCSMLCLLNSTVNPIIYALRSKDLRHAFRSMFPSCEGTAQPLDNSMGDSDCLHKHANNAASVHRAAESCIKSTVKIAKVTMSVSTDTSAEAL

B1: h2F8 (antibody, V domains shown)
VH: QVQLVQSGAEVKKPGASVKVSCKASGYEFSYYWMNWVRQAPGQGLEWMGQIYPGDGDTNYNGKFKGRVTMTRDTSTSTVYMELSSLRSEDTAVYYCARSHGNYMIYWGQGTTVTVSS
VL: EIVLTQSPGTLSLSPGERATLSCIASSSVSSSYLHWYQQKPGQAPRLLIHSTSNLASGIPERFSGSGSGPDFTLTISRLKPEDFAVYYCHQYHRSPRTFGQGTKVEIKR
With B1, in test [1], the “Ca^2+ influx assay IC50” value stood at 2.03 nM and the “cAMP assay IC50” value is 5.9 nM.

B2: Nimacimab (BIRD ROCK BIO) (antibody, V domains shown)
VH: QVQLVQSGAEVKKPGSSVKVSCKASGYEFSYYWMNWVRQAPGQGLEWMGQIYPGDGETKYAQKFQGRVTITADKSTSTAYMELSSLRSEDTAVYYCARSHGNYLPYWGQGTLVTVSS
VL: EIVLTQSPATLSLSPGERATLSCRASQSVSSSYLHWYQQKPGQAPRLLIYSTSNLASGIPARFSGSGSGTDFTLTISRLEPEDFAVYYCHQYHRSPPTFGQGTKVEIK
With B2, in test [1], the “Ca^2+ influx assay IC50” value is 2.62 nM and the “cAMP assay IC50” value is 28.6 nM.

B3: m2F8 (antibody, V domains shown)
VH: QVQLQQSGAELVKPGASVKISCKASGYEFSYYWMNWVKQRPGKGLEWIGQIYPGDGDTNYNGKFKGKATLAAGKSSSTAYMQLSSLTSEDSAVYFCARSHGNYMIYWGQGTSVTVSS
VL: QIVLTQSPAIMSASLGERITLTCIASSSVSSSYLHWYQQKPGSSPKLWIYSTSNLASGVPTRFSGSGSGTSFSLTISTMEAEDAATYYCHQYHRSPRTFGGGTKLEIKR
As to B3, in test [2], the “Ca^2+ influx assay IC50” value stood at 0.9 nM and the “cAMP assay IC50” value was found to be 4.9 nM.

B4: m4D7 (antibody, V domains shown)
VH: B3 VH with L70V, A71T, G73D, R98K, I105D
VL: B3 VL with I24T
Regarding B4, in test [2], the “Ca^2+ influx assay IC50” value amounted to 1.29 nM and the “cAMP assay IC50” value is 3.9 nM.

B5: m26C7 (antibody, V domains shown)
VH: B3 VH with A71T, G73D, I105A
VL: B3 VL with I24T
Consider B5, for which, in test [2], the “Ca^2+ influx assay IC50” value worked out at 1.85 nM and the “cAMP assay IC50” value turned out to be 6.5 nM.

B6: m24C4 (antibody, V domains shown)
VH: B3 VH with A71T, G73D, I105H
VL: B3 VL with I24T
Turning to B6, in test [2], the “Ca^2+ influx assay IC50” value is 1.22 nM and the “cAMP assay IC50” value was determined as 5 nM.

B7: mIML1-2 (antibody, V domains shown)
VH: QVQLQQSGAELVKPGASVKIACKASGYEFNYYWMNWVKQRPGKGLEWIGQIYPGDGDNKYNGKFKGKATLTADKSSSTVYMQLNSLTSEDSAVYFCARTGSGRFAYWGQGTLVTVSA
VL: QIVLTQSPAIMSASPGEKVTMTCRASSSVSSSYLHWYQQKSGASPKLWIYSTSNLASGVPARFSGSGSGTSYSLTITSVEAEDVATYYCQQYSGFPLTFGSGTKLEIKR
B7: in test [2], the “Ca^2+ influx assay IC50” value amounted to 1.77 nM and the “cAMP assay IC50” value was found to be 5.9 nM.

B8: hIML1-2-OP1 (antibody, V domains shown)
VH: QVQLVQSGAEVKKPGASVKVSCKASGYEFNYYWMNWVRQAPGQGLEWMGQIYPGDGDNRYNGKFKGRVTMTRDTSTSTVYMELSSLRSEDTAVYYCARTGSGRFAYWGQGTLVTVSS
VL: DIQMTQSPSSLSASVGDRVTITCKASSSVSTRYLHWYQQKPGKAPKLLIYGTSNIASGVPSRFSGSGSGTDFTLTISSLQPEDVATYYCQQYTAFPLTFGQGTKVEIKR
Turning to B8, in test [1], the “Ca^2+ influx assay IC50” value was 0.55 nM and the “cAMP assay IC50” value was determined as 8.5 nM.
